Reference: patent publication US20250340637A1 (ABPRO, published 2025)
Where a chain is given by its changes, count along the chain named.

T1: CynoCD3E (cyno, UniProt Q95LI5 22-117, limits assumed)
T1 construct: Recombinant analyte in SPR and antigen in ELISA; The construct is not described; also called cynomolgus CD3 epsilon
T1 sequence (looked up): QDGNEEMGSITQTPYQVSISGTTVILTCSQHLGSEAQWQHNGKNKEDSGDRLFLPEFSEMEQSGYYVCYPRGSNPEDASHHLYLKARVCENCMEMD

B1: ABP100s.10.0.3 (antibody, V domains shown)
VH: EVQLVESGGGLVQPGGSLKLSCAASGFTFNTYAMNWVRQAPGKCLEWVARIRSKYNNYATYYADKVKDRFTISRDDSKNTAYLQMNSLKTEDTAVYYCVRHGNFGNSYVSWFAYWGQGTLVTVSS
VL: QTVVTQEPSLTVSPGGTVTLTCRSSTGAVTTSNYANWVQQKPGQAFRGLIGGTNKRAPGVPARFSGSLLGGKAALTLSGVQPEDEAIYFCALWYSNLWVFGCGTKLTVL
B2: ABP100s.10.0.2 (antibody, V domains shown)
VH: B1 VH with Y62K, K65S
VL: B1 VL
B3: ABP100s.10.0.4 (antibody, V domains shown)
VH: B1 VH with A63W, K65S
VL: B1 VL
B4: 32G4-V8-v5.2 (antibody, V domains shown)
VH: B1 VH with C44G, Y62K, K65S
VL: B1 VL with C102G
B5: 47D10-V7-v5.3 (antibody, V domains shown)
VH: B1 VH with C44G
VL: B1 VL with C102G
B6: 32G4-V8-v5.4 (antibody, V domains shown)
VH: B1 VH with C44G, A63W, K65S
VL: B1 VL with C102G
B7: 47D10-V7-v5.4 (antibody, V domains shown)
VH: B1 VH with C44G, A63W, K65S
VL: B1 VL with C102G
B8: 47D10-V7-v5.2 (antibody, V domains shown)
VH: B1 VH with C44G, Y62K, K65S
VL: B1 VL with C102G
B9: 32G4-V8-v5.3 (antibody, V domains shown)
VH: B1 VH with C44G
VL: B1 VL with C102G
B10: VH3 (SEQ ID NO: 18) + VL6 (SEQ ID NO: 19) (antibody, V domains shown)
VH: B1 VH with C44G, K65S
VL: B1 VL with C102G, T107E, V108I, L109K
notes: Humanized SP34 anti-CD3 variant; The sample heated at 42° C. is the same molecule and is marked under assay; also called VH3 + VL6
B11: VH2 (SEQ ID NO: 21) + VL6 (SEQ ID NO: 19) (antibody, V domains shown)
VH: B1 VH with P41S, C44G, K65S
VL: B1 VL with C102G, T107E, V108I, L109K
notes: Humanized SP34 anti-CD3 variant; the text around it speaks of full-length bispecific antibodies; The sample heated at 42° C. is the same molecule and is marked under assay; also called VH2 + VL6
B12: VH3 (SEQ ID NO: 18) + VL4 (SEQ ID NO: 20) (antibody, V domains shown)
VH: B1 VH with C44G, K65S
VL: B1 VL with I87E, C102G, T107E, V108I, L109K
notes: Humanized SP34 anti-CD3 variant; The sample heated at 42° C. is the same molecule and is marked under assay; also called VH3 + VL4
B13: ABP100s.10.6.2 (antibody, V domains shown)
VH: B1 VH with Y62K, K65S
VL: B1 VL
B14: ABP100s.10.5.4 (antibody, V domains shown)
VH: B1 VH with A63W, K65S
VL: B1 VL
B15: ABP100s.10.5.2 (antibody, V domains shown)
VH: B1 VH with Y62K, K65S
VL: B1 VL
B16: ABP100s.10.6.4 (antibody, V domains shown)
VH: B1 VH with A63W, K65S
VL: B1 VL
B17: ABP100s.10.6.3 (antibody, V domains shown)
VH: B1 VH
VL: B1 VL
B18: ABP100s.10.5.3 (antibody, V domains shown)
VH: B1 VH
VL: B1 VL
B19: ABP100s.10.6.5 (antibody, V domains shown)
VH: B1 VH with K65S, A113M
VL: B1 VL
B20: ABP100s.10.5.5 (antibody, V domains shown)
VH: B1 VH with K65S, A113M
VL: B1 VL
B21: ABP100s.10.5.6 (antibody, V domains shown)
VH: B1 VH with K65S
VL: B1 VL with A91M
B22: ABP100s.10.6.6 (antibody, V domains shown)
VH: B1 VH with K65S
VL: B1 VL with A91M
B23: 32G4-V8-v5.6 (antibody, V domains shown)
VH: B1 VH with C44G, K65S
VL: B1 VL with A91M, C102G
B24: 32G4-V8-v5.5 (antibody, V domains shown)
VH: B1 VH with C44G, K65S, A113M
VL: B1 VL with C102G
B25: ABP100s.10.0.1 (antibody, V domains shown)
VH: B1 VH with K65S, A113G
VL: B1 VL
B26: ABP100s.10.6 (antibody, V domains shown)
VH: B1 VH with K65S
VL: B1 VL
B27: ABP100s.10.5 (antibody, V domains shown)
VH: B1 VH with K65S
VL: B1 VL
B28: ABP100s.10.4 (antibody, V domains shown)
VH: B1 VH with K65S
VL: B1 VL

The binders below were run against T2, HuCD3E (Homo sapiens, UniProt P07766 23-126, limits assumed) (assay: SPR, Biacore 8K; CD3 Affinity column: Med; upper end of the range).
T2 construct: Recombinant analyte in SPR and antigen in ELISA; also called human CD3; human CD3 epsilon
T2 sequence (P07766 23-126 limits assumed): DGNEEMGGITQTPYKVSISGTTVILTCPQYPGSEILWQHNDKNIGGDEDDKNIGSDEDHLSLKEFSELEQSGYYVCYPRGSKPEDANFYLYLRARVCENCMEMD
For B1, the Kd was at most 100 nM.
Binder B2 has a Kd of at most 100 nM.
Binder B3 has a Kd of at most 100 nM.

Each binder was assayed against T2, HuCD3E (assay: SPR, Biacore 8K; CD3 Affinity column: Med; lower end of the range).
B4 showed a Kd of at least 10 nM.
B5 showed a Kd of at least 10 nM.
B6 was tested, and the Kd was at least 10 nM.
Binder B7 has a Kd of at least 10 nM.
B8 showed a Kd of at least 10 nM.
For B9, the Kd was at least 10 nM.

Biological target: T2, HuCD3E
Assay: SPR, Biacore 8K; CD3 Affinity column: Med; upper end of the range
Remark: another data set of the same source
B4 gave a Kd of at most 100 nM.
Work on B5 yielded a Kd of at most 100 nM.
For B6, the Kd was at most 100 nM.
In the case of B7, the Kd is reported as at most 100 nM.
In the case of B8, the Kd is reported as at most 100 nM.
B9 showed a Kd of at most 100 nM.

Each binder was assayed against T1, CynoCD3E (assay: SPR, Biacore 8K; antibody captured, CD3E as analyte).
Experimental: (§1) Initially, the affinity measurement of the anti-CD3 clones were determined using a Surface Plasmon Resonance (SPR) biosensor, Biacore 8K (GE Healthcare). The equilibrium dissociation constant (KD) was calculated from the ratio of kd over ka. To determine the contribution of a specific residue to antibody affinity and expression, paratope mapping was performed by screening of NNK libraries. In brief, the VH and VL of the parental antibody were searched by using NCBI Ig-Blast (www.ncbi.nlm.nih.gov/projects/igblast/) and CDRs were defined by the KABAT delineation system. All residues within CDRs were defined and mutated by NNK method. Each individual NNK library was generated per residue based on the FASEBA platform with a theoretical diversity at 20. The DNA encoding both heavy chain and light chain were inserted into a mammalian expression vector, transfected into CHO-S cells, and stable clones of highest expression were selected. Supernatants were collected from shaker flasks and purified on protein A affinity chromatography.
(§2) Affinity ranking. Binding between the parental and affinity-tuned bispecific antibodies and human and cyno target proteins (HER2 and CD3) was validated by ELISA, and a Biacore 8K was used to study the kinetics of the interaction between the antigen and the bispecific antibodies.
Binder B10 has a Kd of 1.71 nM, a koff of 0.000469 s⁻¹ and a kon of 274000 M⁻¹ s⁻¹.
B11 was tested, and the Kd was 1.7 nM, the koff was 0.000821 s⁻¹ and the kon was 483000 M⁻¹ s⁻¹.
In the case of B12, the Kd is reported as 2.14 nM, the koff is reported as 0.000501 s⁻¹ and the kon is reported as 234000 M⁻¹ s⁻¹.

These binders were tested against T2, HuCD3E in the same assay as above.
Experimental: as §1, §2
Binder B10 has a Kd of 1.25 nM, a koff of 0.000286 s⁻¹ and a kon of 229000 M⁻¹ s⁻¹.
With B11 the Kd was 1.01 nM, the koff was 0.000357 s⁻¹ and the kon was 352000 M⁻¹ s⁻¹.
Work on B12 yielded a Kd of 1.72 nM, a koff of 0.000331 s⁻¹ and a kon of 192000 M⁻¹ s⁻¹.

Biological target: T2, HuCD3E
Assay: SPR, Biacore 8K; CD3 Affinity column: Med; upper end of the range
Remark: another data set of the same source
Experimental: as §1, §2
B13 gave a Kd of at most 100 nM.
For B14, the Kd was at most 100 nM.
Binder B15 has a Kd of at most 100 nM.
For B16, the Kd was at most 100 nM.
Work on B17 yielded a Kd of at most 100 nM.
Work on B18 yielded a Kd of at most 100 nM.

The binders below were run against T2, HuCD3E (assay: SPR, Biacore 8K; CD3 Affinity column: Low).
Experimental: as §1, §2
Work on B19 yielded a Kd of at least 100 nM.
Binder B20 has a Kd of over 100 nM.
B21 was tested, and the Kd was over 100 nM.

Biological target: T2, HuCD3E
Assay: SPR, Biacore 8K; CD3 Affinity column: Med; lower end of the range
Remark: another data set of the same source
In the case of B13, the Kd is reported as at least 10 nM.
B14 gave a Kd of at least 10 nM.
For B15, the Kd was at least 10 nM.
B16 gave a Kd of at least 10 nM.
B17 showed a Kd of at least 10 nM.
B18 gave a Kd of at least 10 nM.

Biological target: T2, HuCD3E
Assay: SPR, Biacore 8K; CD3 Affinity column: Low
Remark: another data set of the same source
In the case of B22, the Kd is reported as at least 100 nM.
In the case of B23, the Kd is reported as over 100 nM.
B24 showed a Kd of over 100 nM.

Biological target: T2, HuCD3E
Assay: SPR, Biacore 8K; CD3 Affinity column: Med; lower end of the range
Remark: another data set of the same source
B1 showed a Kd of at least 10 nM.
B2 was tested, and the Kd was at least 10 nM.
B3 was tested, and the Kd was at least 10 nM.

The binders below were run against T2, HuCD3E (assay: SPR, Biacore 8K; CD3 Affinity column: Hi).
With B25 the Kd was under 10 nM.
B26 gave a Kd of under 10 nM.
B27 showed a Kd of under 10 nM.
Binder B28 has a Kd of under 10 nM.

Each binder was assayed against T1, CynoCD3E (assay: SPR, Biacore 8K; antibody captured, CD3E as analyte; sample after 24 h at 42° C.).
Experimental: as §1
(§3) Thermal stability. […] After incubation, the supernatant was centrifuged at 4500 rpm, and undissolved substances was discarded. Heat-treated, purified full-length bispecific antibodies were re-evaluated for their concentrations, and affinity ranking of samples with thermal treatment to human and cyno CD3 was conducted.
as §2
With B10 the Kd was 1.36 nM, the koff was 0.000489 s⁻¹ and the kon was 359000 M⁻¹ s⁻¹.
Work on B12 yielded a Kd of 1.9 nM, a koff of 0.00049 s⁻¹ and a kon of 257000 M⁻¹ s⁻¹.

What follows are binders tested against T2, HuCD3E in the same assay as above.
Experimental: as §1, §3, §2
Binder B10 has a Kd of 1.38 nM, a koff of 0.000343 s⁻¹ and a kon of 249000 M⁻¹ s⁻¹.
B12 showed a Kd of 1.5 nM, a koff of 0.000349 s⁻¹ and a kon of 232000 M⁻¹ s⁻¹.
